This assay addresses T1, SAX-3–Flag (C. elegans, UniProt G5EBF1 24-1273).
T1 sequence (looked up): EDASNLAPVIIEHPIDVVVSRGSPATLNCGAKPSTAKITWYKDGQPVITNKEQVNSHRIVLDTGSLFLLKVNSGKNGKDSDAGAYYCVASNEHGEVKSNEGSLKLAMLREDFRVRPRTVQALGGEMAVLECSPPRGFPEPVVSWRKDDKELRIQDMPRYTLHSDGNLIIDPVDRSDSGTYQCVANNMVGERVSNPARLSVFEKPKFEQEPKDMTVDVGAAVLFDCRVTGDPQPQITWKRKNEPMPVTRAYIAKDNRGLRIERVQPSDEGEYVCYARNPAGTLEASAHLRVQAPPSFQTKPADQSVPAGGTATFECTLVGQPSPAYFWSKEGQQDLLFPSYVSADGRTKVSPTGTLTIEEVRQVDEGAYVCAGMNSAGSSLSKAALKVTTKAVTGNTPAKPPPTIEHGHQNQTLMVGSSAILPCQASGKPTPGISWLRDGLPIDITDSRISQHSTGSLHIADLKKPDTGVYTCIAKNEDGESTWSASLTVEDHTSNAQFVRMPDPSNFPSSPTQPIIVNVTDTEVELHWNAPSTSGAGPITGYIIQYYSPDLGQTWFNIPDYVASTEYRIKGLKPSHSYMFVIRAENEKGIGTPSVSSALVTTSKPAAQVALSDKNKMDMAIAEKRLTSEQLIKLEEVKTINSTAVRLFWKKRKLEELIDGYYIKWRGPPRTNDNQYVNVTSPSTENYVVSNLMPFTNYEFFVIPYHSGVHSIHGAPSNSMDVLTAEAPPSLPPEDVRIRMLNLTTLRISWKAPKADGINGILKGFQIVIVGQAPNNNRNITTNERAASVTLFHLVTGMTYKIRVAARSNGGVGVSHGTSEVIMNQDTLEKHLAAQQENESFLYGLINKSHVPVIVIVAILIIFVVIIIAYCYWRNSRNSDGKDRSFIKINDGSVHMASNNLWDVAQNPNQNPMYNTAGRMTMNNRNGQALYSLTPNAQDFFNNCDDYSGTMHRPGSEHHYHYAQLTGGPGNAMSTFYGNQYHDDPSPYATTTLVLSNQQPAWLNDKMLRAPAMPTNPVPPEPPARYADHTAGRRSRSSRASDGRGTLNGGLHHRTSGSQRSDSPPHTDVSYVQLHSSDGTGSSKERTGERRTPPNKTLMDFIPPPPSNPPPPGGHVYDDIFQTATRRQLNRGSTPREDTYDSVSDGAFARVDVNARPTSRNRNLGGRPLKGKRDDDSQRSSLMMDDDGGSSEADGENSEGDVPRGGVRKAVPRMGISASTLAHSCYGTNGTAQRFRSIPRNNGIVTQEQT
The assay can be described thus: pull-down.

B1: CWN-2–GST (ligand, C. elegans, UniProt P34889 38-360, looked up)
chain: AGHNVKPVCELPGLSPGQAQVCELFKDHMPAVSIGAQNAIQECQRQFTGHRWNCSTHYSTGMLGPIHKMATREAAFTYAILSAGVTHEIGRRCKQGLLTSCGCSDETKPKNVPTDWSWGGCGDNVEYGYKFSRDFIDIREKEHDPKRNHDNGRSLMNRRNNEAGRKILKRHRKPKCKCHGVSGACNMKTCWMQLPSMEQVGKILRNKYDKAIRVQINDRGNLQLLADEATKERKTRALPTDLVFMDDSPDYCRFDRHSGTLGTEGRVCKRGSGGAEGCDSLCCGRGYNTYTQEVKSKCNCKFEWCCKVVCQTCNNVTQVDICK
Consider B1, for which the binding result is on record as “binds”.

(Values after PMC5877952 (Proceedings of the National Academy of Sciences of the …, 2018).)
